Results reported in patent publication US20250171562A1.
One block for each binder: values may come before it.

What was measured:
[1] = molecular target: IgE on basophils of allergic donors (human) (UniProt P01854); assay: displacement of IgE from FcεRI on basophils, whole blood of an allergic donor, flow cytometry of surface IgE [panel B]
[2] = molecular target: IgE on basophils of allergic donors (human) (UniProt P01854); assay: displacement of IgE from FcεRI on basophils, whole blood of an allergic donor, flow cytometry of surface IgE [panel C]
[3] = molecular target: mixture of three Der p 2 specific recombinant human IgE clones H10, H12, P4E (human) (UniProt P01854); assay: RBL-SX38 IgE displacement, FACS
[4] = molecular target: IgE on basophils of allergic donors (human) (UniProt P01854); assay: IgE surface stain on donor basophils, flow cytometry

Chain of IgE on basophils of allergic donors (human) (P01854 1-428): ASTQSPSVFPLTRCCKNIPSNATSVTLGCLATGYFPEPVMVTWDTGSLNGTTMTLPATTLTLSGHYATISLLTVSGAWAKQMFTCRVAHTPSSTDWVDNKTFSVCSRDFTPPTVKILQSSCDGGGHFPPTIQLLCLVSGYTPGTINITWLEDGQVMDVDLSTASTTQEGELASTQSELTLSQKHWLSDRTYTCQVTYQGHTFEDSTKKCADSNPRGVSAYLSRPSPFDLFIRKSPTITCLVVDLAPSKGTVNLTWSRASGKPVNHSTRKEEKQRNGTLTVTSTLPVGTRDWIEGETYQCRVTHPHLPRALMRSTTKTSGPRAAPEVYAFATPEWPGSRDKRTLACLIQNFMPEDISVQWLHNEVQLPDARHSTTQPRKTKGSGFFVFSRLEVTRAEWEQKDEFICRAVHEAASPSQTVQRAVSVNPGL
Chain of mixture of three Der p 2 specific recombinant human IgE clones H10, H12, P4E (human) (P01854 other isoform, or with tags, fused parts or gaps): as the sequence (P01854 1-428) above, with L428K counted along it

EC50 (read off the curve) [1]: 4 nM
EC50 (read off the curve) [2]: 3 nM
EC50 [3]: 19.5 nM
Max effect/effect 1 µM [3]: 99%
B1: CIgG4B1A1(G4S)2 (Fc fusion)
chain 1: GPPCPPCPAPEFLGGPSVFLFPPKPKDTLMISRTPEVTCVVVDVSQEDPEVQFNWYVDGVEVHNAKTKPREEQFNSTYRVVSVLTVLHQDWLNGKEYKCKVSNKGLPSSIEKTISKAKGQPREPQVYTLPPCQEEMTKNQVSLWCLVKGFYPSDIAVEWESNGQPENNYKTTPPVLDSDGSFFLYSRLTVDKSRWQEGNVFSCSVMHEALHNHYTQKSLSLSLGKGGGGSGGGGSQVQLQESGGGLVQTGGSLRLSCAVHGRTFSNTGMGWFRQAPGNERQFVAIISPSGTSTYYADSVKGRFTISRDPAKNTVYLQMNSLKMDDTAVYYCAASYGSNWSTLRHQRRNEYDAWGQGTQVAVS
chain 2: GPPCPPCPAPEFLGGPSVFLFPPKPKDTLMISRTPEVTCVVVDVSQEDPEVQFNWYVDGVEVHNAKTKPREEQFNSTYRVVSVLTVLHQDWLNGKEYKCKVSNKGLPSSIEKTISKAKGQPREPQVCTLPPSQEEMTKNQVSLSCAVKGFYPSDIAVEWESNGQPENNYKTTPPVLDSDGSFFLVSRLTVDKSRWQEGNVFSCSVMHEALHNHYTQKSLSLSLGKGGGGSGGGGSEVQLLESGGGLVQPGGSLRLSCAASGFTFGNYDMAWVRQAPGKRPEWVSSIDTGGDITHYADSVKGRFTISRDNAKNTLYLQMNSLRPEDTAVYWCATDEEYALGPNEFDYYGQGTLVTVSS

EC50 [3]: 16.6 nM
Max effect/effect 1 µM [3]: 98%
B2: CIgG4F6A1(G4S)2 (Fc fusion)
chain 1: GPPCPPCPAPEFLGGPSVFLFPPKPKDTLMISRTPEVTCVVVDVSQEDPEVQFNWYVDGVEVHNAKTKPREEQFNSTYRVVSVLTVLHQDWLNGKEYKCKVSNKGLPSSIEKTISKAKGQPREPQVYTLPPCQEEMTKNQVSLWCLVKGFYPSDIAVEWESNGQPENNYKTTPPVLDSDGSFFLYSRLTVDKSRWQEGNVFSCSVMHEALHNHYTQKSLSLSLGKGGGGSGGGGSDVQLQESGGGLVQAGGSLRLSCAASGLTFGSYDMGWYRQAPGKQRELVGRIRNDGITYYADSVKGRFTMSRDNAKNTVYLQMNSLKPEDTAVYYCAADGTGLGHYDYWGQGTQVTVS
chain 2: B1 chain 2

EC50 (read off the curve) [1]: 4 nM
EC50 (read off the curve) [2]: 3 nM
EC50 [3]: 3 nM
Max effect/effect 1 µM [3]: 99%
B3: NIgG4B1A1(G4S)1 (Fc fusion)
chain 1: QVQLQESGGGLVQTGGSLRLSCAVHGRTFSNTGMGWFRQAPGNERQFVAIISPSGTSTYYADSVKGRFTISRDPAKNTVYLQMNSLKMDDTAVYYCAASYGSNWSTLRHQRRNEYDAWGQGTQVAVSGGGGSGPPCPPCPAPEFLGGPSVFLFPPKPKDTLMISRTPEVTCVVVDVSQEDPEVQFNWYVDGVEVHNAKTKPREEQFNSTYRVVSVLTVLHQDWLNGKEYKCKVSNKGLPSSIEKTISKAKGQPREPQVYTLPPCQEEMTKNQVSLWCLVKGFYPSDIAVEWESNGQPENNYKTTPPVLDSDGSFFLYSRLTVDKSRWQEGNVFSCSVMHEALHNHYTQKSLSLSLGK
chain 2: EVQLLESGGGLVQPGGSLRLSCAASGFTFGNYDMAWVRQAPGKRPEWVSSIDTGGDITHYADSVKGRFTISRDNAKNTLYLQMNSLRPEDTAVYWCATDEEYALGPNEFDYYGQGTLVTVSSGGGGSGPPCPPCPAPEFLGGPSVFLFPPKPKDTLMISRTPEVTCVVVDVSQEDPEVQFNWYVDGVEVHNAKTKPREEQFNSTYRVVSVLTVLHQDWLNGKEYKCKVSNKGLPSSIEKTISKAKGQPREPQVCTLPPSQEEMTKNQVSLSCAVKGFYPSDIAVEWESNGQPENNYKTTPPVLDSDGSFFLVSRLTVDKSRWQEGNVFSCSVMHEALHNHYTQKSLSLSLGK

EC50 (read off the curve) [1]: 6 nM
EC50 (read off the curve) [2]: 4 nM
EC50 [3]: 14.1 nM
Max effect/effect 1 µM [3]: 99%
B4: CIgG4B1A1(G4S3) (Fc fusion)
chain 1: GPPCPPCPAPEFLGGPSVFLFPPKPKDTLMISRTPEVTCVVVDVSQEDPEVQFNWYVDGVEVHNAKTKPREEQFNSTYRVVSVLTVLHQDWLNGKEYKCKVSNKGLPSSIEKTISKAKGQPREPQVYTLPPCQEEMTKNQVSLWCLVKGFYPSDIAVEWESNGQPENNYKTTPPVLDSDGSFFLYSRLTVDKSRWQEGNVFSCSVMHEALHNHYTQKSLSLSLGKGGGGSGGGGSGGGGSQVQLQESGGGLVQTGGSLRLSCAVHGRTFSNTGMGWFRQAPGNERQFVAIISPSGTSTYYADSVKGRFTISRDPAKNTVYLQMNSLKMDDTAVYYCAASYGSNWSTLRHQRRNEYDAWGQGTQVAVS
chain 2: GPPCPPCPAPEFLGGPSVFLFPPKPKDTLMISRTPEVTCVVVDVSQEDPEVQFNWYVDGVEVHNAKTKPREEQFNSTYRVVSVLTVLHQDWLNGKEYKCKVSNKGLPSSIEKTISKAKGQPREPQVCTLPPSQEEMTKNQVSLSCAVKGFYPSDIAVEWESNGQPENNYKTTPPVLDSDGSFFLVSRLTVDKSRWQEGNVFSCSVMHEALHNHYTQKSLSLSLGKGGGGSGGGGSGGGGSEVQLLESGGGLVQPGGSLRLSCAASGFTFGNYDMAWVRQAPGKRPEWVSSIDTGGDITHYADSVKGRFTISRDNAKNTLYLQMNSLRPEDTAVYWCATDEEYALGPNEFDYYGQGTLVTVSS

EC50 [3]: 7.9 nM
Max effect/effect 1 µM [3]: 90%
B5: CIgG4F6A1(G4S)3 (Fc fusion)
chain 1: GPPCPPCPAPEFLGGPSVFLFPPKPKDTLMISRTPEVTCVVVDVSQEDPEVQFNWYVDGVEVHNAKTKPREEQFNSTYRVVSVLTVLHQDWLNGKEYKCKVSNKGLPSSIEKTISKAKGQPREPQVYTLPPCQEEMTKNQVSLWCLVKGFYPSDIAVEWESNGQPENNYKTTPPVLDSDGSFFLYSRLTVDKSRWQEGNVFSCSVMHEALHNHYTQKSLSLSLGKGGGGSGGGGSGGGGSDVQLQESGGGLVQAGGSLRLSCAASGLTFGSYDMGWYRQAPGKQRELVGRIRNDGITYYADSVKGRFTMSRDNAKNTVYLQMNSLKPEDTAVYYCAADGTGLGHYDYWGQGTQVTVS
chain 2: B4 chain 2

EC50 (read off the curve) [1]: 4 nM
EC50 (read off the curve) [2]: 4 nM
EC50 [3]: 22.4 nM
Max effect/effect 1 µM [3]: 99%
B6: CIgG4B1A1(G4S)1 (Fc fusion)
chain 1: GPPCPPCPAPEFLGGPSVFLFPPKPKDTLMISRTPEVTCVVVDVSQEDPEVQFNWYVDGVEVHNAKTKPREEQFNSTYRVVSVLTVLHQDWLNGKEYKCKVSNKGLPSSIEKTISKAKGQPREPQVYTLPPCQEEMTKNQVSLWCLVKGFYPSDIAVEWESNGQPENNYKTTPPVLDSDGSFFLYSRLTVDKSRWQEGNVFSCSVMHEALHNHYTQKSLSLSLGKGGGGSQVQLQESGGGLVQTGGSLRLSCAVHGRTFSNTGMGWFRQAPGNERQFVAIISPSGTSTYYADSVKGRFTISRDPAKNTVYLQMNSLKMDDTAVYYCAASYGSNWSTLRHQRRNEYDAWGQGTQVAVS
chain 2: GPPCPPCPAPEFLGGPSVFLFPPKPKDTLMISRTPEVTCVVVDVSQEDPEVQFNWYVDGVEVHNAKTKPREEQFNSTYRVVSVLTVLHQDWLNGKEYKCKVSNKGLPSSIEKTISKAKGQPREPQVCTLPPSQEEMTKNQVSLSCAVKGFYPSDIAVEWESNGQPENNYKTTPPVLDSDGSFFLVSRLTVDKSRWQEGNVFSCSVMHEALHNHYTQKSLSLSLGKGGGGSEVQLLESGGGLVQPGGSLRLSCAASGFTFGNYDMAWVRQAPGKRPEWVSSIDTGGDITHYADSVKGRFTISRDNAKNTLYLQMNSLRPEDTAVYWCATDEEYALGPNEFDYYGQGTLVTVSS

EC50 (read off the curve) [1]: 10 nM
EC50 (read off the curve) [2]: 20 nM
EC50 [3]: 84.9 nM
Max effect/effect 1 µM [3]: 92%
B7: CIgG4B1A1(RS) (Fc fusion)
chain 1: GPPCPPCPAPEFLGGPSVFLFPPKPKDTLMISRTPEVTCVVVDVSQEDPEVQFNWYVDGVEVHNAKTKPREEQFNSTYRVVSVLTVLHQDWLNGKEYKCKVSNKGLPSSIEKTISKAKGQPREPQVYTLPPCQEEMTKNQVSLWCLVKGFYPSDIAVEWESNGQPENNYKTTPPVLDSDGSFFLYSRLTVDKSRWQEGNVFSCSVMHEALHNHYTQKSLSLSLGKRSQVQLQESGGGLVQTGGSLRLSCAVHGRTFSNTGMGWFRQAPGNERQFVAIISPSGTSTYYADSVKGRFTISRDPAKNTVYLQMNSLKMDDTAVYYCAASYGSNWSTLRHQRRNEYDAWGQGTQVAVS
chain 2: GPPCPPCPAPEFLGGPSVFLFPPKPKDTLMISRTPEVTCVVVDVSQEDPEVQFNWYVDGVEVHNAKTKPREEQFNSTYRVVSVLTVLHQDWLNGKEYKCKVSNKGLPSSIEKTISKAKGQPREPQVCTLPPSQEEMTKNQVSLSCAVKGFYPSDIAVEWESNGQPENNYKTTPPVLDSDGSFFLVSRLTVDKSRWQEGNVFSCSVMHEALHNHYTQKSLSLSLGKRSEVQLLESGGGLVQPGGSLRLSCAASGFTFGNYDMAWVRQAPGKRPEWVSSIDTGGDITHYADSVKGRFTISRDNAKNTLYLQMNSLRPEDTAVYWCATDEEYALGPNEFDYYGQGTLVTVSS

displacement effect on IgE surface expression [4]: 100%
B8: A2+B1 (protein)
VHH 1: EVQLLESGGGLVQPGGSLRLSCAASGFRFGNYDMAWVRQAPGKRYEWVSSIDTGGDITHYADSVKGRFTISRDNAKNTLYLQMNSLRPEDTAEYWCATDEEYALGPNEFDYYGQGTLVTVS
VHH 2: QVQLQESGGGLVQTGGSLRLSCAVHGRTFSNTGMGWFRQAPGNERQFVAIISPSGTSTYYADSVKGRFTISRDPAKNTVYLQMNSLKMDDTAVYYCAASYGSNWSTLRHQRRNEYDAWGQGTQVAVS

displacement effect on IgE surface expression [4]: 100%
B9: A2+B2 (protein)
VHH 1: B8 VHH 1
VHH 2: QVQLVESGGGLVQAGGSLRLSCAVFGSTFSNNVADWYRQAPGKQRELVARISASGATREYGDSVKGRFTISRDDAKNTMYLQMNNLKPEDTAVYRCHKIEWEDLSRKDYWGQGTQVTVS
